# Laboratory results taken from IntAct's records for PubMed 20558380.
# B1: Vang-like protein 2 (Homo sapiens), Q9ULK5 (parent)
# chain: MDTESQYSGYSYKSGHSRSSRKHRDRRDRHRSKSRDGGRGDKSVTIQAPGEPLLDNESTRGDERDDNWGETTTVVTGTSEHSISHDDLTRIAKDMEDSVPLDCSRHLGVAAGATLALLSFLTPLAFLLLPPLLWREELEPCGTACEGLFISVAFKLLILLLGSWALFFRRPKASLPRVFVLRALLMVLVFLLVVSYWLFYGVRILDARERSYQGVVQFAVSLVDALLFVHYLAVVLLELRQLQPQFTLKVVRSTDGASRFYNVGHLSIQRVAVWILEKYYHDFPVYNPALLNLPKSVLAKKVSGFKVYSLGEENSTNNSTGQSRAVIAAAARRRDNSHNEYYYEEAEHERRVRKRRARLVVAVEEAFTHIKRLQEEEQKNPREVMDPREAAQAIFASMARAMQKYLRTTKQQPYHTMESILQHLEFCITHDMTPKAFLERYLAAGPTIQYHKERWLAKQWTLVSEEPVTNGLKDGIVFLLKRQDFSLVVSTKKVPFFKLSEEFVDPKSHKFVMRLQSETSV
# partner: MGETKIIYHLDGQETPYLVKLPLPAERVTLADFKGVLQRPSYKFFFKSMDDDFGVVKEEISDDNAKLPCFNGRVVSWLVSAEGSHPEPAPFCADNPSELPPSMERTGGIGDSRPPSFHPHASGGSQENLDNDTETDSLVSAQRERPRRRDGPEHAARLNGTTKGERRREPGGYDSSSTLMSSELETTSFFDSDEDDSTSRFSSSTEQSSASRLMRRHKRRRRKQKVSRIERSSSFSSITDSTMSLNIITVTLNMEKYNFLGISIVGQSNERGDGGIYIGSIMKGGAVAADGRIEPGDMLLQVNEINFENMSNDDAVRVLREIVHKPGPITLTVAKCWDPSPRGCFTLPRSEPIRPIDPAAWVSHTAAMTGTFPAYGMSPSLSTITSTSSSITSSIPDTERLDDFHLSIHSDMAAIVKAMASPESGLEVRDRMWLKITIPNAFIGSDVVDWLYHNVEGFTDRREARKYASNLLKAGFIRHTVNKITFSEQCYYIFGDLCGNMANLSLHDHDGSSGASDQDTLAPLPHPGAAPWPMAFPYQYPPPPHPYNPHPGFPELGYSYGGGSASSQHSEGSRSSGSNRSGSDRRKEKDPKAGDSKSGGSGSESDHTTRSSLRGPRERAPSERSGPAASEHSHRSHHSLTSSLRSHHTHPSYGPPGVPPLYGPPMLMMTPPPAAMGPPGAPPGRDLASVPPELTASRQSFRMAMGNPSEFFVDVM
# B2: Vang-like protein 2 (Homo sapiens), Q9ULK5 (parent)
# chain: B1 chain
# partner: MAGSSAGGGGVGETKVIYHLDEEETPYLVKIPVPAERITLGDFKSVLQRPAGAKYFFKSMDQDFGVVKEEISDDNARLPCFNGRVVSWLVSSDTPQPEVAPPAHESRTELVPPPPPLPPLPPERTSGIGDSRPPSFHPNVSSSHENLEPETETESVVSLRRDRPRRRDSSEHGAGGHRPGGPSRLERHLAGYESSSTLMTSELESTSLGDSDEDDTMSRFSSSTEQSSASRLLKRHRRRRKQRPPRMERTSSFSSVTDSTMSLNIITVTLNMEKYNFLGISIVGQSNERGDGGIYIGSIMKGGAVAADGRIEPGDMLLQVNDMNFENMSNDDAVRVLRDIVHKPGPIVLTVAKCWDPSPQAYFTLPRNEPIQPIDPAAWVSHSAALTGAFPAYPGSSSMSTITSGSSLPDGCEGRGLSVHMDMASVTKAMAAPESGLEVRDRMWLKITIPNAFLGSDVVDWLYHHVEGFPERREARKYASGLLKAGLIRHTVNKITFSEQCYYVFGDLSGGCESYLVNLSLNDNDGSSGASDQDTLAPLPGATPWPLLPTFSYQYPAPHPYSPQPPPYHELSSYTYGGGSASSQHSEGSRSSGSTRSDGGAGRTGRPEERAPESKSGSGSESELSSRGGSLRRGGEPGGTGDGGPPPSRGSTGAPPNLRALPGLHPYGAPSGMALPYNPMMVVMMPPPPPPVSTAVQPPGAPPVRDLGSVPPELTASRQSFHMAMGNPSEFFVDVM
# Variants of: B1
# Settings: with dvl3_mouse Dvl3, Q61062
row,effect of a mutation on the interaction,Variant
1,disrupting interaction,MDTESQYSGYSYKSGHSRSSRKHRDRRDRHRSKSRDGGRGDKSVTIQAPGEPLLDNESTRGDERDDNWGETTTVVTGTSEHSISHDDLTRIAKDMEDSVPLDCSRHLGVAAGATLALLSFLTPLAFLLLPPLLWREELEPCGTACEGLFISVAFKLLILLLGSWALFFRRPKASLPRVFVLRALLMVLVFLLVVSYWLFYGVRILDARERSYQGVVQFAVSLVDALLFVHYLAVVLLELRQLQPQFTLKVVRSTDGASRFYNVGHLSIQRVAVWILEKYYHDFPVYNPALLNLPKSVLAKKVSGFKVYSLGEENSTNNSTGQSRAVIAAAARRRDNSHNEYYYEEAEHERRVRKRRARLVVAVEEAFTHIKRLQEEEQKNPREVMDPREAAQAIFASMARAMQKYLRTTKQQPYHTMESILQHLEFCITHDMTPKASLERYLAAGPTIQYHKERWLAKQWTLVSEEPVTNGLKDGIVFLLKRQDFSLVVSTKKVPFFKLSEEFVDPKSHKFVMRLQSETSV [F437S]
2,disrupting interaction,MDTESQYSGYSYKSGHSRSSRKHRDRRDRHRSKSRDGGRGDKSVTIQAPGEPLLDNESTRGDERDDNWGETTTVVTGTSEHSISHDDLTRIAKDMEDSVPLDCSRHLGVAAGATLALLSFLTPLAFLLLPPLLWREELEPCGTACEGLFISVAFKLLILLLGSWALFFRRPKASLPRVFVLRALLMVLVFLLVVSYWLFYGVRILDARERSYQGVVQFAVSLVDALLFVHYLAVVLLELRQLQPQFTLKVVRSTDGASRFYNVGHLSIQRVAVWILEKYYHDFPVYNPALLNLPKSVLAKKVSGFKVYSLGEENSTNNSTGQSRAVIAAAARRRDNSHNEYYYEEAEHERRVRKRRARLVVAVEEAFTHIKRLQEEEQKNPREVMDPREAAQAIFASMARAMQKYLRTTKQQPYHTMESILQHLEFCITHDMTPKAFLERYLAAGPTIQYHKERWLAKQWTLVNEEPVTNGLKDGIVFLLKRQDFSLVVSTKKVPFFKLSEEFVDPKSHKFVMRLQSETSV [S464N]
3,decreasing interaction,MDTESQYSGYSYKSGHSRSSRKHRDRRDRHRSKSRDGGRGDKSVTIQAPGEPLLDNESTRGDERDDNWGETTTVVTGTSEHSISHDDLTRIAKDMEDSVPLDCSRHLGVAAGATLALLSFLTPLAFLLLPPLLWREELEPCGTACEGLFISVAFKLLILLLGSWALFFRRPKASLPRVFVLRALLMVLVFLLVVSYWLFYGVRILDARERSYQGVVQFAVSLVDALLFVHYLAVVLLELRQLQPQFTLKVVRSTDGASRFYNVGHLSIQRVAVWILEKYYHDFPVYNPALLNLPKSVLAKKVSGFKVYSLGEENSTNNSTGQSRAVIAAAARRRDNSHNEYYYEEAEHERRVCKRRARLVVAVEEAFTHIKRLQEEEQKNPREVMDPREAAQAIFASMARAMQKYLRTTKQQPYHTMESILQHLEFCITHDMTPKAFLERYLAAGPTIQYHKERWLAKQWTLVSEEPVTNGLKDGIVFLLKRQDFSLVVSTKKVPFFKLSEEFVDPKSHKFVMRLQSETSV [R353C]
4,disrupting interaction,MDTESQYSGYSYKSGHSRSSRKHRDRRDRHRSKSRDGGRGDKSVTIQAPGEPLLDNESTRGDERDDNWGETTTVVTGTSEHSISHDDLTRIAKDMEDSVPLDCSRHLGVAAGATLALLSFLTPLAFLLLPPLLWREELEPCGTACEGLFISVAFKLLILLLGSWALFFRRPKASLPRVFVLRALLMVLVFLLVVSYWLFYGVRILDARERSYQGVVQFAVSLVDALLFVHYLAVVLLELRQLQPQFTLKVVRSTEGASRFYNVGHLSIQRVAVWILEKYYHDFPVYNPALLNLPKSVLAKKVSGFKVYSLGEENSTNNSTGQSRAVIAAAARRRDNSHNEYYYEEAEHERRVRKRRARLVVAVEEAFTHIKRLQEEEQKNPREVMDPREAAQAIFASMARAMQKYLRTTKQQPYHTMESILQHLEFCITHDMTPKAFLERYLAAGPTIQYHKERWLAKQWTLVSEEPVTNGLKDGIVFLLKRQDFSLVVSTKKVPFFKLSEEFVDPKSHKFVMRLQSETSV [D255E]

# Variants of: B2
# Settings: with dvl2_mouse Dvl2, Q60838
row,effect of a mutation on the interaction,Variant
1,disrupting interaction,MDTESQYSGYSYKSGHSRSSRKHRDRRDRHRSKSRDGGRGDKSVTIQAPGEPLLDNESTRGDERDDNWGETTTVVTGTSEHSISHDDLTRIAKDMEDSVPLDCSRHLGVAAGATLALLSFLTPLAFLLLPPLLWREELEPCGTACEGLFISVAFKLLILLLGSWALFFRRPKASLPRVFVLRALLMVLVFLLVVSYWLFYGVRILDARERSYQGVVQFAVSLVDALLFVHYLAVVLLELRQLQPQFTLKVVRSTDGASRFYNVGHLSIQRVAVWILEKYYHDFPVYNPALLNLPKSVLAKKVSGFKVYSLGEENSTNNSTGQSRAVIAAAARRRDNSHNEYYYEEAEHERRVRKRRARLVVAVEEAFTHIKRLQEEEQKNPREVMDPREAAQAIFASMARAMQKYLRTTKQQPYHTMESILQHLEFCITHDMTPKASLERYLAAGPTIQYHKERWLAKQWTLVSEEPVTNGLKDGIVFLLKRQDFSLVVSTKKVPFFKLSEEFVDPKSHKFVMRLQSETSV [F437S]
2,disrupting interaction,MDTESQYSGYSYKSGHSRSSRKHRDRRDRHRSKSRDGGRGDKSVTIQAPGEPLLDNESTRGDERDDNWGETTTVVTGTSEHSISHDDLTRIAKDMEDSVPLDCSRHLGVAAGATLALLSFLTPLAFLLLPPLLWREELEPCGTACEGLFISVAFKLLILLLGSWALFFRRPKASLPRVFVLRALLMVLVFLLVVSYWLFYGVRILDARERSYQGVVQFAVSLVDALLFVHYLAVVLLELRQLQPQFTLKVVRSTDGASRFYNVGHLSIQRVAVWILEKYYHDFPVYNPALLNLPKSVLAKKVSGFKVYSLGEENSTNNSTGQSRAVIAAAARRRDNSHNEYYYEEAEHERRVRKRRARLVVAVEEAFTHIKRLQEEEQKNPREVMDPREAAQAIFASMARAMQKYLRTTKQQPYHTMESILQHLEFCITHDMTPKAFLERYLAAGPTIQYHKERWLAKQWTLVNEEPVTNGLKDGIVFLLKRQDFSLVVSTKKVPFFKLSEEFVDPKSHKFVMRLQSETSV [S464N]
